Here are results for eight molecules from US20180282403A1, “AGENTS FOR REDUCING THE ACTIVITY OF GDF15” (GENAGON THERAPEUTICS AB, priority 2015, published 2018).

For one assay, the target named is T1, QRFPR (Homo sapiens, UniProt Q96P65).
T1 construct: endogenous in cells
T1 sequence (Q96P65 1-431): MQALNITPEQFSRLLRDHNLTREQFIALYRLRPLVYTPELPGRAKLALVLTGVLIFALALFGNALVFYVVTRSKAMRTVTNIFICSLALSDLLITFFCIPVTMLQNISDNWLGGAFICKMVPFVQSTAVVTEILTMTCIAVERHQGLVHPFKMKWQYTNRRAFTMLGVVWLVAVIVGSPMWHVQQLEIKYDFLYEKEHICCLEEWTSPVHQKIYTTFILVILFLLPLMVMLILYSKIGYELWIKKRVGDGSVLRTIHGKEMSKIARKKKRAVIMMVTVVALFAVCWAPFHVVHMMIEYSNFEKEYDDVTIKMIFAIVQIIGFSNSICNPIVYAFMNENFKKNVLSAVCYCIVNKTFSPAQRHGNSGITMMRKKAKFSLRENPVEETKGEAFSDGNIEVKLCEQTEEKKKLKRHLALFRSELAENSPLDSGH
Kind of assay: QRFPR levels after prolonged GDF15 stimulation with or without proteasome inhibition. Format: cell-based. The conditions noted are these: MG132 10 μM + GDF15 overnight vs equal GDF15 without MG132; FIG. 6. As for the experimental part: This effect is not seen in cells which are treated with MG132 (FIG. 6D).

For assay [1], the target named is T2, GDF15 (Homo sapiens, UniProt Q99988).
T2 construct: purchased Abcam
T2 sequence (Q99988 197-308 limits assumed): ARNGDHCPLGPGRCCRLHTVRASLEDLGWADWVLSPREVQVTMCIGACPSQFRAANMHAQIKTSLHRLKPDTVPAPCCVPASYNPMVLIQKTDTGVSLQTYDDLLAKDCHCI
The experiment in a line: Pull down of GDF15 by Fc fusion proteins with stringent washes. Format: binding. The conditions noted are these: 20 μg Fc fusion protein, 0.5 μg GDF15, protein-G bead, FIG. 27. As for the experimental part: (§1) 20 μg Fc fusion protein constructs were incubated with 0.5 μg GDF15 and protein-G bead with mixing for 6 hrs in +4 C in PBST+1% BSAs. Wash 6 times: 3 times PBST, change tubes, 2 washes PBST+220 mM NaCl. Last wash PBS. The beads were collected using a table-top centrifuge set at 500 g for 5 minutes between washes. Detection The material was loaded on a 4-12% gradient gel, run at 100 volt, transferred to PVDF membrane using a Turbo Tank blot system, blocked by PBS with 3% BSA 1 hr RT, and incubated with RD systems a monoclonal anti-GDF15 antibody overnight. A secondary antibody: mouse HRP 1:2000 was used for detection. The size of band was estimated by comparing with a seeblue2 protein ladder marker run in an adjacent lane.
The fragments from the receptors were selected based on previous results including array data indicating direct interaction with GDF15. In the array, the interaction is between a peptide monomer and the ligand.

For another assay, the system named is CD14+ cells. The experiment in a line: Cytokine secretion by LPS-stimulated CD14+ cells (Proseek assay). Format: cell-based. As for the experimental part: CD14+ cells where isolated and cultured in the presence or absence of GDF15 in a LPS stimulated culture.
Buffy coat cell suspension or heparinized blood samples were diluted with sterile, room temperature PBS. Peripheral blood samples are diluted 1:1, whereas buffy coats are diluted to a final volume of 120 ml (in a standard buffy coat this will result in slightly greater dilution than 1:1). The diluted cell suspension was layered onto Ficoll Paque PLUS. For one buffy 4×15 ml aliquots are used (30 ml of diluted cell suspension/tube). Cells were centrifuged at 400×g for 30 min at room temperature and transferred to a new 50 ml tube. Cells were washed once and resuspended in 20 ml PBS.
Mononuclear cell suspension was pelleted by centrifugation. Cells were resuspended in Stemcell buffer at a concentration of 10^8 cells/ml and transferred to a round bottom 14 ml tube. EasySep Positive Selection cocktail at was added at 100 μl/ml cells, mixed by gentle pipetting, and incubated at room temperature for 15 min. 50 μl EasySep Magnetic Nanoparticles per 1 ml cells were added and mixed, and incubated at room temperature for 10 min. Stemcell recommended medium was added to bring the cell suspension to a total volume of 5 ml and mixed by gently pipetting. The tube (without cap) was placed into the magnet and set aside for 5 min. After 5 minutes the supernatant was discarded. CD14+ labelled cells will remain inside the tube. The tube was removed from the magnet and add 5 ml Stemcell recommended medium was added and mixed by gently pipetting. The tube (without cap) was placed into the magnet and set aside for 5 min. The was step was repeated before the cells were resuspended in 5 ml complete RPMI medium. 50 μl of the CD14+ cell suspension was removed and counted to determine total cell number after dilution in Trypan blue solution and mounting on Fast Read 102 Counting Slides.
Adjust CD14+ cell suspension volume to a concentration of 0.833×10^6 cells/ml in complete RPMI medium. 300 μl of cell suspension is added to wells in a 48 well plate well (0.25×10^6 cells per well), and allowed to adhere for 90 min in an incubator at 37° C. Non-adherent cells were removed by removal of the supernatant after gently pipetting the medium. Cells were washed once with 300 μl pre-warmed complete RPMI medium and the medium aspirated off. 300 μl pre-warmed complete RPMI medium was added to each well and the cells were incubate overnight (20-24 h) in a cell incubator at 37° C.
A 17× stock solution of the desired GDF15 modulatory substances was diluted in complete RPMI. (20 μl of substance/well assayed). 20 μl of modulatory substance or medium/carrier (negative control) was added to each well and mixed by gentle pipetting. Cells were incubated for 30 min in a cell incubator at 37° C. A 17×GDF15 solution was prepared by diluting a 100 μg/ml stock solution to a concentration of 8.5 μg/ml (final concentration in culture 0.5 μg/ml) in complete RPMI. 20 μl of diluted GDF15 was added per well, and incubated overnight (18-20 h) in a cell incubator at 37° C.
A 18×LPS solution was prepared by diluting the LPS stock solution to a concentration of 18 ng/ml (final concentration in culture 1 ng/ml) in complete RPMI. 20 μl of LPS or medium (negative control) was added to each well and mixed by gentle pipetting. […]
Secreted proteins from cell cultures where quantified using multiplexed proximity extension assay, Proseek (Assarsson E et al PlosOne 2014) by Olink Proteomics AB (Uppsala Sweden). […]

Assay [2] deals with T2, GDF15. The experiment in a line: Biotin pull-down of GDF15 using biotinylated peptides derived from QRFPR and CLPTM1. Format: binding. Particulars: N-terminal biotin peptides on Streptavidin-agarose beads, extensive washes; FIG. 8A. As to the method:
In order to further characterise the peptides which interact with GDF15, a series of GST-fusion proteins and biotinylated peptides was prepared. GDF15 was obtained from Biovision and/or Abcam.
A series of peptides from the QRFPR and the CLPTM1 proteins was designed. In order to use the peptides both for immunoprecipitation experiments and cell culture based assays added an N-terminal biotin was added to each peptide, and the counter-ion changed to chloride.
A series of biotinylated peptides was used (FIG. 8A). […] Combinations of the peptides were also used. Peptides were mixed in a 1:1 ratio, with same total amounts as in lanes 1-5, resulting in 50% of each peptide as compared to lanes 1-5. Lane 6: EC domain 3 & EC domain 4 from QRFPR; Lane 7: EC domain 4 from QRFPR & peptide from EC domain of CLPTM1; Lane 8: EC domain 3 from QRFPR & peptide from EC domain of CLPTM1; Lane 9: Mw markers; Lane 10: GDF15 (positive control).

In assay [3] the target is T3, Cleft Lip and Palate Transmembrane protein 1 (CLPTM1) (human, UniProt O96005 2-669).
T3 construct: Endogenous receptor of NK-92 cells, CD14+ cells and human tissues
T3 sequence: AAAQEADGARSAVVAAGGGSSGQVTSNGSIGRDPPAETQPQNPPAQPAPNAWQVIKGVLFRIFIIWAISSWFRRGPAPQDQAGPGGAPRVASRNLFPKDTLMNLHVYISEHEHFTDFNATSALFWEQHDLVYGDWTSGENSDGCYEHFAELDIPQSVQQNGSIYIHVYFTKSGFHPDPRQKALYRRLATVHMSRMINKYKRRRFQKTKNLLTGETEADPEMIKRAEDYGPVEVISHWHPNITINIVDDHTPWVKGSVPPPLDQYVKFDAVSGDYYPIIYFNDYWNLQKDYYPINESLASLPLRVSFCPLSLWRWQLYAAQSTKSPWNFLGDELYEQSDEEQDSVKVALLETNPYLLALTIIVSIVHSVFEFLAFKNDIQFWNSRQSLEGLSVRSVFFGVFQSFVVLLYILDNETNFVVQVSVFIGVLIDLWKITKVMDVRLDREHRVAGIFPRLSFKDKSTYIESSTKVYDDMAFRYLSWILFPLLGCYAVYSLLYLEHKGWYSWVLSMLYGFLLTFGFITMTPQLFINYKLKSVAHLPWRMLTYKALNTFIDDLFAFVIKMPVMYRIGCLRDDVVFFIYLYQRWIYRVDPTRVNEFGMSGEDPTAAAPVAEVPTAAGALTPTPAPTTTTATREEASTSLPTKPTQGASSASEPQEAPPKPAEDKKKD
Kind of assay: in situ PLA on NK-92 cells.

Assay [4] deals with T4, Growth and differentiation factor 15 (GDF15) (UniProt Q99988 197-308, limits assumed).
T4 construct: Purchased GDF15 added to cells, pull-downs, peptide arrays and ELISA; also called MIC1
T4 sequence (looked up): T2 sequence (Q99988 197-308 limits assumed)
The experiment in a line: Fc-fusion pull-down on protein-G beads, Western blot. As to the method:
as §1

The mark [5] stands for this setting: LPS stimulated CD14+ cells with GDF15 + agent.

Residues, ends and D or L forms follow the SMILES beside them. No end group written: not given here. *: point of attachment. Cbz = O=C(OCc1ccccc1)*

On to `CC(C)C[C@@H](C=O)NC(=O)[C@H](CC(C)C)NC(=O)[C@H](CC(C)C)NC(=O)OCc1ccccc1` [MG132, reference compound] (Cbz-Leu-Leu-Leu-aldehyde), for which the “levels of QRFPR” value on QRFPR is listed as “levels of QRFPR were increased”.

On to “Fc mouse IgG1-GGGGSGGGGSGGGGSYISEHEHFTDFNATSALFWEQHDLVYGDWTS ({Fc mouse IgG1}-GGGGSGGGGSGGGGSYISEHEHFTDFNATSALFWEQHDLVYGDWTS) [AP2, Fc fusion protein with CLPTM1 peptide]”, for which the “pull down of GDF15 by Fc fusion protein” value with GDF15 [1] was “capable of pulling down GDF15”. Further, the “secretion of IFNγ” value in the assay on CD14+ cells (LPS stimulated CD14+ cells + agent, FIG. 30) is on record as “demonstrated secretion of the pro-inflammatory protein IFNγ”. In the assay on CD14+ cells (setting [5]), the “secretion of IL12” value is recorded as “increase in secretion of both cytokines” and the “secretion of TNF” value was “increase in secretion of both cytokines”.

In the case of “GALFWEQHDLVYGDWTS (listed as Homo sapiens) [SEQ ID NO:19]”, the “GDF15 precipitated by biotinylated peptide (pull-down)” value with GDF15 [2] was “more successful than the others in precipitating GDF15”.

Regarding “GEIKYDFLYEKEHICCLEEWTS (listed as Homo sapiens) [SEQ ID NO:10]”, the “GDF15 precipitated by biotinylated peptide (pull-down)” value with GDF15 [2] is on record as “more successful than the others in precipitating GDF15”.

B1: TGFBRII (receptor, UniProt P37173 23-567, looked up)
chain: TIPPHVQKSVNNDMIVTDNNGAVKFPQLCKFCDVRFSTCDNQKSCMSNCSITSICEKPQEVCVAVWRKNDENITLETVCHDPKLPYHDFILEDAASPKCIMKEKKKPGETFFMCSCSSDECNDNIIFSEEYNTSNPDLLLVIFQVTGISLLPPLGVAISVIIIFYCYRVNRQQKLSSTWETGKTRKLMEFSEHCAIILEDDRSDISSTCANNINHNTELLPIELDTLVGKGRFAEVYKAKLKQNTSEQFETVAVKIFPYEEYASWKTEKDIFSDINLKHENILQFLTAEERKTELGKQYWLITAFHAKGNLQEYLTRHVISWEDLRKLGSSLARGIAHLHSDHTPCGRPKMPIVHRDLKSSNILVKNDLTCCLCDFGLSLRLDPTLSVDDLANSGQVGTARYMAPEVLESRMNLENVESFKQTDVYSMALVLWEMTSRCNAVGEVKDYEPPFGSKVREHPCVESMKDNVLRDRGRPEIPSFWLNHQGIQMVCETLTECWDHDPEARLTAQCVAERFSELEHLDRLSGRSCSEEKIPEDGSLNTTK
notes: whole, on cells
In the case of B1, in assay [3], the binding result is listed as “binds”.

B2: AP5 (QRFPR peptide): Fc mouse IgG1-GGGGSGGGGSGGGGSQRLEIKYDFLYEKEH (Fc fusion, not shown: a dimerising Fc or GST)
chain: {Fc mouse IgG1}-GGGGSGGGGSGGGGSQRLEIKYDFLYEKEH
modifications: also: Fc fusion dimer
notes: if the entry holds the Fc too, the first part is redundant; also called AP5 construct; Fc fusion protein comprising a QRFPR polypeptide
Consider B2, for which the binding result in assay [4] is “binds”.

B3: AP2 (CLPTM1 peptide): Fc mouse IgG1-GGGGSGGGGSGGGGSYISEHEHFTDFNATSALFWEQHDLVYGDWTS (Fc fusion, not shown: a dimerising Fc or GST)
chain: {Fc mouse IgG1}-GGGGSGGGGSGGGGSYISEHEHFTDFNATSALFWEQHDLVYGDWTS
modifications: also: Fc fusion dimer
notes: also called AP2 construct; Fc fusion protein comprising a CLPTM1 polypeptide
With B3, the binding result in assay [4] is recorded as “binds”.

B4: TGFBRI (ALK5) (receptor, UniProt P36897 34-503, looked up)
chain: LQCFCHLCTKDNFTCVTDGLCFVSVTETTDKVIHNSMCIAEIDLIPRDRPFVCAPSSKTGSVTTTYCCNQDHCNKIELPTTVKSSPGLGPVELAAVIAGPVCFVCISLMLMVYICHNRTVIHHRVPNEEDPSLDRPFISEGTTLKDLIYDMTTSGSGSGLPLLVQRTIARTIVLQESIGKGRFGEVWRGKWRGEEVAVKIFSSREERSWFREAEIYQTVMLRHENILGFIAADNKDNGTWTQLWLVSDYHEHGSLFDYLNRYTVTVEGMIKLALSTASGLAHLHMEIVGTQGKPAIAHRDLKSKNILVKKNGTCCIADLGLAVRHDSATDTIDIAPNHRVGTKRYMAPEVLDDSINMKHFESFKRADIYAMGLVFWEIARRCSIGGIHEDYQLPYYDLVPSDPSVEEMRKVVCEQKLRPNIPNRWQSCEALRVMAKIMRECWYANGAARLTALRIKKTLSQLSQQEGIKM
notes: whole, on cells; also called TGFBR1
Regarding B4, in assay [3], the binding result is given as “binds”.
